Measured values: the supplement of paper PMC7877785
± gives the uncertainty stated by the source.

Experiment: self-splicing fitness, log relative to wild type (ln ratio); higher = more splicing; Tetrahymena group I intron in knt gene, E. coli kanamycin selection, DiMSum; sequences stand for … in CUCUCU…GGAGGGAAAAGUUAUCAGGCAUGCACCUGGUAGCUAGUCUUUAAACCAAUAGAUUGCAUCGGUUUAAAAGGCAAGACCGUCAAAUUGCGGGAAAGGGGUCAACAGCCGUUCAGUACCAAGUCUCAGGGGAAACUUUGAGAUGGCCUUGCAAAGGGUAUGGUAAUAAGCUGACGGACAUGGUCCUAACCACGCAGCCAAGUCCUAAGUCAACAGAUCUUCUGUUGAUAUGGAUGCAGUUCACAGACUAAAUGUCGGUCGGGGAAGAUGUAUUCUUCUCAUAAGAUAUAGUCGGACCUCUCCUUAAUGGGAGCUAGCGGAUGAAGUGAUGCAACACUGGAGCCGCUGGGAACUAAUUUGUAUGCGAAAGUAUAUUGAUUAGUUUUGGAGUACUCGUGGUCG
In short: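 Library with all eight P1ex-region intron nucleotides randomised, intron inside the knt kanamycin-resistance gene on pET-22b(+), in E. coli BL21(DE3). Cells grew overnight at 37°C or 30°C on LB agar with or without 25 μg/mL kanamycin (plus 100 μg/mL carbenicillin, 50 μM IPTG, 0.2% rhamnose), in six replicate transformations. Pooled colonies were amplicon-sequenced on Illumina HiSeq 2500. DiMSum fitness is the error-weighted combination of wild-type-normalised replicate fold changes, kanamycin versus none.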

Row | Sequence | self-splicing fitness (ln) (30 °C) | self-splicing fitness (ln) (37 °C)
1 | GGAGAGCAAUAUUACGAGAU | -2.5 ± 0.36 | -2.14 ± 0.34
2 | GGAGAGCAAUAUUACGCACG | – | -0.798 ± 0.47
3 | GGAGAGCAAUAUUACGCGAG | -2.31 ± 0.48 | –
4 | GGAGAGCAAUAUUACGCGAU | -2.76 ± 0.28 | -1.64 ± 0.37
5 | GGAGAGCAAUAUUACGCGUU | -2.46 ± 0.28 | -1.82 ± 0.32
6 | GGAGAGCAAUAUUACGGACG | – | -1.27 ± 0.31
7 | GGAGAGCAAUAUUACGGCAC | -1.39 ± 0.37 | –
8 | GGAGAGCAAUAUUACGGGAG | -4.1 ± 0.21 | -2.37 ± 0.23
9 | GGAGAGCAAUAUUACGGUGU | -3.55 ± 0.28 | -2.38 ± 0.18
10 | GGAGAGCAAUAUUACGUACG | -2.56 ± 0.43 | –
11 | GGAGAGCAAUAUUACGUCAG | -3.34 ± 0.22 | -1.75 ± 0.21
12 | GGAGAGCAAUAUUACGUCUU | -4.08 ± 0.28 | -3.23 ± 0.38
13 | GGAGAGCAAUAUUACGUUCG | -1.27 ± 0.19 | -0.35 ± 0.23
14 | GGAGAGCAAUAUUACGUUGG | -4.09 ± 0.47 | -2.64 ± 0.36
15 | GGAUAGCAAUAUUACGAAGA | -2.93 ± 0.34 | -1.82 ± 0.31
16 | GGAUAGCAAUAUUACGAAGG | -2.12 ± 0.24 | -2.02 ± 0.26
17 | GGAUAGCAAUAUUACGACAC | -0.106 ± 0.11 | 0.407 ± 0.14
18 | GGAUAGCAAUAUUACGAGCU | -0.723 ± 0.19 | -0.744 ± 0.14
19 | GGAUAGCAAUAUUACGAUCA | 0.409 ± 0.12 | 0.227 ± 0.12
20 | GGAUAGCAAUAUUACGCAGA | -2.53 ± 0.25 | -1.58 ± 0.21
21 | GGAUAGCAAUAUUACGCCCG | -1.49 ± 0.24 | -0.949 ± 0.27
22 | GGAUAGCAAUAUUACGCCUU | -0.526 ± 0.11 | 0.31 ± 0.1
23 | GGAUAGCAAUAUUACGCGAA | -1.69 ± 0.29 | -1.41 ± 0.42

Row | Sequence | self-splicing fitness (ln) (30 °C) | self-splicing fitness (ln) (37 °C)
24 | GGAUAGCAAUAUUACGCGAC | -3.69 ± 0.36 | -1.92 ± 0.38
25 | GGAUAGCAAUAUUACGCUAU | – | -2.05 ± 0.31
26 | GGAUAGCAAUAUUACGCUGU | -1.65 ± 0.25 | -2.68 ± 0.38
27 | GGAUAGCAAUAUUACGGAUC | -0.869 ± 0.084 | -0.269 ± 0.11
28 | GGAUAGCAAUAUUACGGCGC | 0.356 ± 0.34 | 0.121 ± 0.33
29 | GGAUAGCAAUAUUACGGCUC | -0.0157 ± 0.31 | -1.59 ± 0.35
30 | GGAUAGCAAUAUUACGGCUU | -0.686 ± 0.095 | -0.309 ± 0.11
31 | GGAUAGCAAUAUUACGGGCG | -1.69 ± 0.13 | -0.955 ± 0.094
32 | GGAUAGCAAUAUUACGGUCG | -0.0227 ± 0.077 | 0.199 ± 0.094
33 | GGAUAGCAAUAUUACGGUUU | -1.22 ± 0.093 | -0.329 ± 0.11
34 | GGAUAGCAAUAUUACGUACC | -2.37 ± 0.26 | -0.601 ± 0.25
35 | GGAUAGCAAUAUUACGUAGG | -2.82 ± 0.19 | -1.52 ± 0.18
36 | GGAUAGCAAUAUUACGUAGU | -3.21 ± 0.15 | -1.67 ± 0.15
37 | GGAUAGCAAUAUUACGUCCG | -0.616 ± 0.17 | -0.972 ± 0.2
38 | GGAUAGCAAUAUUACGUCCU | -3.13 ± 0.19 | -1.84 ± 0.24
39 | GGAUAGCAAUAUUACGUCGC | -1.97 ± 0.17 | -1.42 ± 0.21
40 | GGAUAGCAAUAUUACGUCGU | -0.886 ± 0.1 | -0.841 ± 0.12
41 | GGAUAGCAAUAUUACGUCUC | -2.52 ± 0.25 | -2.16 ± 0.46
42 | GGAUAGCAAUAUUACGUCUG | -0.225 ± 0.061 | -0.0327 ± 0.088
43 | GGAUAGCAAUAUUACGUGGC | -2.56 ± 0.25 | –
44 | GGAUAGCAAUAUUACGUUAG | – | -2 ± 0.23
45 | GGAUAGCAAUAUUACGUUUC | – | -1.84 ± 0.41
